± gives the uncertainty stated by the source.
Assay: self-splicing fitness, log relative to wild type (ln ratio); higher = more splicing; Tetrahymena group I intron in knt gene, E. coli kanamycin selection, DiMSum; sequences stand for … in CUCUCU…GGAGGGAAAAGUUAUCAGGCAUGCACCUGGUAGCUAGUCUUUAAACCAAUAGAUUGCAUCGGUUUAAAAGGCAAGACCGUCAAAUUGCGGGAAAGGGGUCAACAGCCGUUCAGUACCAAGUCUCAGGGGAAACUUUGAGAUGGCCUUGCAAAGGGUAUGGUAAUAAGCUGACGGACAUGGUCCUAACCACGCAGCCAAGUCCUAAGUCAACAGAUCUUCUGUUGAUAUGGAUGCAGUUCACAGACUAAAUGUCGGUCGGGGAAGAUGUAUUCUUCUCAUAAGAUAUAGUCGGACCUCUCCUUAAUGGGAGCUAGCGGAUGAAGUGAUGCAACACUGGAGCCGCUGGGAACUAAUUUGUAUGCGAAAGUAUAUUGAUUAGUUUUGGAGUACUCGUGGUCG
In short: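 Six replicate transformations of E. coli BL21(DE3) with a pET-22b(+) library were grown overnight at 37°C or 30°C. The library randomised all eight P1ex-region intron nucleotides, the intron lying in the knt kanamycin-resistance gene, and plates were LB agar with or without 25 μg/mL kanamycin plus 100 μg/mL carbenicillin, 50 μM IPTG and 0.2% rhamnose. Pooled colonies were amplicon-sequenced on an Illumina HiSeq 2500, and fitness is the DiMSum error-weighted combination of wild-type-normalised replicate fold changes, kanamycin versus none.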

Sequence	self-splicing fitness (ln) (30 °C)	self-splicing fitness (ln) (37 °C)
AUCUAGCAAUAUUACGCGCG	-0.762 ± 0.095	-0.257 ± 0.12
AUCUAGCAAUAUUACGCGGA	-1.69 ± 0.26	-2.53 ± 0.23
AUCUAGCAAUAUUACGCGGC	-3.15 ± 0.38	-2.92 ± 0.33
AUCUAGCAAUAUUACGCUAG	-3.91 ± 0.27	-3.5 ± 0.31
AUCUAGCAAUAUUACGCUCA	-0.577 ± 0.17	-0.0187 ± 0.2
AUCUAGCAAUAUUACGCUUG	-1.85 ± 0.12	-1.36 ± 0.14
AUCUAGCAAUAUUACGGAGC	-3.43 ± 0.19	-1.32 ± 0.14
AUCUAGCAAUAUUACGGAUC	-3.03 ± 0.17	-2.33 ± 0.24
AUCUAGCAAUAUUACGGCAG	-2.04 ± 0.17	-0.157 ± 0.16
AUCUAGCAAUAUUACGGUCU	-0.756 ± 0.078	-0.908 ± 0.098
AUCUAGCAAUAUUACGGUUU	-1.13 ± 0.13	-0.53 ± 0.13
AUCUAGCAAUAUUACGUAAU	-1.28 ± 0.098	-1.37 ± 0.12
AUCUAGCAAUAUUACGUAGG	-1.96 ± 0.14	-0.273 ± 0.21
AUCUAGCAAUAUUACGUAUA	-2.84 ± 0.33	-1.91 ± 0.3
AUCUAGCAAUAUUACGUAUC	-3.29 ± 0.24	-1.74 ± 0.39
AUCUAGCAAUAUUACGUCGA	-1.39 ± 0.11	-0.769 ± 0.12
AUCUAGCAAUAUUACGUGAC	-3.35 ± 0.26	-1.14 ± 0.2
AUCUAGCAAUAUUACGUGAU	-1.16 ± 0.14	-2.25 ± 0.32
AUGAAGCAAUAUUACGAAAG	-1.77 ± 0.11	-0.735 ± 0.16
AUGAAGCAAUAUUACGAGUC	–	-2.69 ± 0.24
AUGAAGCAAUAUUACGAGUU	-2.19 ± 0.096	-1.15 ± 0.1
AUGAAGCAAUAUUACGAUAA	-0.381 ± 0.077	-0.287 ± 0.085
AUGAAGCAAUAUUACGAUGU	0.274 ± 0.092	-0.284 ± 0.099
AUGAAGCAAUAUUACGCAAA	-2.25 ± 0.17	-1.31 ± 0.17
AUGAAGCAAUAUUACGCACG	-1.09 ± 0.1	0.541 ± 0.14

Sequence	self-splicing fitness (ln) (30 °C)	self-splicing fitness (ln) (37 °C)
AUGAAGCAAUAUUACGCCAC	-0.249 ± 0.39	-1.9 ± 0.41
AUGAAGCAAUAUUACGCCAG	-0.726 ± 0.13	0.273 ± 0.18
AUGAAGCAAUAUUACGCCCG	-0.353 ± 0.25	-0.729 ± 0.38
AUGAAGCAAUAUUACGCCUA	0.118 ± 0.087	-0.0119 ± 0.14
AUGAAGCAAUAUUACGCGGA	-0.591 ± 0.1	-0.105 ± 0.12
AUGAAGCAAUAUUACGCUAC	-2.06 ± 0.094	-1.86 ± 0.15
AUGAAGCAAUAUUACGCUGU	-2.02 ± 0.12	-0.999 ± 0.13
AUGAAGCAAUAUUACGGAGG	-2.82 ± 0.12	-0.72 ± 0.12
AUGAAGCAAUAUUACGGGGC	-4.78 ± 0.26	-2.48 ± 0.2
AUGAAGCAAUAUUACGUAAU	-1.57 ± 0.075	-0.42 ± 0.094
AUGAAGCAAUAUUACGUAGA	-2.86 ± 0.18	-1.84 ± 0.19
AUGAAGCAAUAUUACGUAUU	-1.52 ± 0.081	-1.23 ± 0.099
AUGAAGCAAUAUUACGUCAA	-0.911 ± 0.064	-0.148 ± 0.076
AUGAAGCAAUAUUACGUGCC	-0.735 ± 0.12	-0.196 ± 0.11
AUGAAGCAAUAUUACGUGCU	-1.69 ± 0.12	-1.39 ± 0.12
AUGCAGCAAUAUUACGAGUC	-3.73 ± 0.25	-2.32 ± 0.22
AUGCAGCAAUAUUACGAUAU	-1.04 ± 0.054	0.0687 ± 0.07
AUGCAGCAAUAUUACGAUCU	-0.511 ± 0.084	0.285 ± 0.13
AUGCAGCAAUAUUACGCCAU	-1.53 ± 0.18	-2.28 ± 0.35
AUGCAGCAAUAUUACGCCCU	-0.387 ± 0.22	0.0709 ± 0.25
AUGCAGCAAUAUUACGCCGG	-1.72 ± 0.15	-0.877 ± 0.21
AUGCAGCAAUAUUACGCCUA	-0.128 ± 0.1	-0.513 ± 0.12
AUGCAGCAAUAUUACGCGAC	-2.18 ± 0.17	-0.372 ± 0.17
AUGCAGCAAUAUUACGCGAG	-3.82 ± 0.17	-0.707 ± 0.11
AUGCAGCAAUAUUACGCGGG	-2.94 ± 0.17	-2.49 ± 0.17

Sequence	self-splicing fitness (ln) (30 °C)	self-splicing fitness (ln) (37 °C)
AUGCAGCAAUAUUACGGAAU	-2.37 ± 0.088	-0.752 ± 0.093
AUGCAGCAAUAUUACGGCAG	-0.985 ± 0.11	-1.29 ± 0.15
AUGCAGCAAUAUUACGGCGC	-0.143 ± 0.17	0.107 ± 0.18
AUGCAGCAAUAUUACGGCUC	-0.408 ± 0.1	-0.0582 ± 0.13
AUGCAGCAAUAUUACGGGAC	-2.82 ± 0.17	-2.74 ± 0.19
AUGCAGCAAUAUUACGGGAG	-3.13 ± 0.17	-2.11 ± 0.13
AUGCAGCAAUAUUACGGGCU	-2.25 ± 0.078	-1.07 ± 0.1
AUGCAGCAAUAUUACGGUGG	-3.96 ± 0.18	-1.86 ± 0.12
AUGCAGCAAUAUUACGUAAA	-1.44 ± 0.092	-1.14 ± 0.13
AUGCAGCAAUAUUACGUAAG	-0.932 ± 0.062	-0.743 ± 0.077
AUGCAGCAAUAUUACGUAAU	-0.641 ± 0.05	-0.479 ± 0.066
AUGCAGCAAUAUUACGUCAC	–	-1.09 ± 0.16
AUGCAGCAAUAUUACGUGUA	-2.34 ± 0.11	-0.835 ± 0.091
AUGGAGCAAUAUUACGAAAA	–	-0.761 ± 0.38
AUGGAGCAAUAUUACGAAAC	-2.72 ± 0.4	–
AUGGAGCAAUAUUACGAAAU	-1.92 ± 0.23	–
AUGGAGCAAUAUUACGACAU	-1.36 ± 0.017	-0.784 ± 0.035
AUGGAGCAAUAUUACGACGG	–	1.8 ± 0.38
AUGGAGCAAUAUUACGACUU	-1.73 ± 0.1	-1.08 ± 0.13
AUGGAGCAAUAUUACGAGCA	-2.33 ± 0.46	-1.17 ± 0.49
AUGGAGCAAUAUUACGAGUU	-4.04 ± 0.43	-3.03 ± 0.22
AUGGAGCAAUAUUACGAUCG	–	-1.1 ± 0.42
AUGGAGCAAUAUUACGAUUA	-1.13 ± 0.36	–
AUGGAGCAAUAUUACGCACA	-1.57 ± 0.16	-0.961 ± 0.21
AUGGAGCAAUAUUACGCAGC	-2.14 ± 0.23	-2.54 ± 0.33

Sequence	self-splicing fitness (ln) (30 °C)	self-splicing fitness (ln) (37 °C)
AUGGAGCAAUAUUACGCAUC	-3.74 ± 0.14	-3.29 ± 0.26
AUGGAGCAAUAUUACGCCAG	-2.26 ± 0.35	–
AUGGAGCAAUAUUACGCCAU	-4.27 ± 0.46	-2.17 ± 0.34
AUGGAGCAAUAUUACGCUCA	-1.46 ± 0.17	-1.17 ± 0.18
AUGGAGCAAUAUUACGCUCG	-1.58 ± 0.14	-0.952 ± 0.18
AUGGAGCAAUAUUACGGAAC	–	-1.21 ± 0.42
AUGGAGCAAUAUUACGGAAG	-3.24 ± 0.38	–
AUGGAGCAAUAUUACGGACG	-2.44 ± 0.32	-0.988 ± 0.3
AUGGAGCAAUAUUACGGAGA	-2.93 ± 0.44	-1.21 ± 0.32
AUGGAGCAAUAUUACGGGUU	-2.3 ± 0.43	-3.16 ± 0.4
AUGGAGCAAUAUUACGGUUG	-4.12 ± 0.3	-2.21 ± 0.23
AUGGAGCAAUAUUACGUCAA	-1.77 ± 0.35	-0.821 ± 0.36
AUGGAGCAAUAUUACGUUUA	-2.59 ± 0.28	-1.83 ± 0.27
AUGUAGCAAUAUUACGAACU	-0.642 ± 0.12	0.131 ± 0.15
AUGUAGCAAUAUUACGAAGC	-3.22 ± 0.37	0.239 ± 0.23
AUGUAGCAAUAUUACGAAUU	-2 ± 0.12	-1.84 ± 0.16
AUGUAGCAAUAUUACGAGAC	-3.13 ± 0.31	-2.09 ± 0.2
AUGUAGCAAUAUUACGAGCG	-1.23 ± 0.11	-1.8 ± 0.14
AUGUAGCAAUAUUACGAUGA	-0.624 ± 0.15	-1.66 ± 0.15
AUGUAGCAAUAUUACGCAAA	-2.34 ± 0.33	-1.07 ± 0.2
AUGUAGCAAUAUUACGCAAU	-1.49 ± 0.13	-1.01 ± 0.23
AUGUAGCAAUAUUACGCACU	-0.786 ± 0.099	0.708 ± 0.14
AUGUAGCAAUAUUACGCAUG	-1.38 ± 0.095	-0.413 ± 0.12

From the supplement of paper PMC7877785
